Reference: patent publication US9433687B2, “Anti-Notch3 antibodies and antibody-drug conjugates” (Pfizer Inc., priority 2012, dated 2016)

T1: human Notch3 NRR recombinant protein (Homo sapiens, UniProt Q9UM47)
T1 construct: made in house
T1 sequence (Q9UM47 with tags, fused parts or gaps): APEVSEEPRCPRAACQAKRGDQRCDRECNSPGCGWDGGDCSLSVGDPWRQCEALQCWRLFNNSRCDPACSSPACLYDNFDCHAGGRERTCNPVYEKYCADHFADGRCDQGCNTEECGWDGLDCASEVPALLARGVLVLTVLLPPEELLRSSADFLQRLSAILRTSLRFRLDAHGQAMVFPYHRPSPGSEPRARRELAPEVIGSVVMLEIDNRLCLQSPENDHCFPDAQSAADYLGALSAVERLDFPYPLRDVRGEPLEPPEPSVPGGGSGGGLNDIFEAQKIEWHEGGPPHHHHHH

T2: human Notch1 NRR-Fc (Homo sapiens, UniProt P46531)
T2 construct: Expression constructs encoding human Notch1 and Notch2 NRR regions, fused with human IgG1 Fc fragments; made in house; host or cells: CHO-PACE cells
T2 sequence (P46531 1446-1733 limits assumed): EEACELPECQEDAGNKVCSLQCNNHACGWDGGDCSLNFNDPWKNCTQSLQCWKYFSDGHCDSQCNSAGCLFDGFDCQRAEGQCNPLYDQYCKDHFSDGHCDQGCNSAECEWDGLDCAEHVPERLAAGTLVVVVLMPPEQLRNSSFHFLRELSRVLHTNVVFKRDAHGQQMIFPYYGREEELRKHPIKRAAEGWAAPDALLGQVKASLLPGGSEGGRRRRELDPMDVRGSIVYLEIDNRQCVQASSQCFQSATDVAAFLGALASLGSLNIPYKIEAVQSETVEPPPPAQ

T3: human Notch2 NRR-Fc (Homo sapiens, UniProt Q04721)
T3 construct: Expression constructs encoding human Notch1 and Notch2 NRR regions, fused with human IgG1 Fc fragments; made in house; host or cells: CHO-PACE cells
T3 sequence (Q04721 1425-1677 limits assumed): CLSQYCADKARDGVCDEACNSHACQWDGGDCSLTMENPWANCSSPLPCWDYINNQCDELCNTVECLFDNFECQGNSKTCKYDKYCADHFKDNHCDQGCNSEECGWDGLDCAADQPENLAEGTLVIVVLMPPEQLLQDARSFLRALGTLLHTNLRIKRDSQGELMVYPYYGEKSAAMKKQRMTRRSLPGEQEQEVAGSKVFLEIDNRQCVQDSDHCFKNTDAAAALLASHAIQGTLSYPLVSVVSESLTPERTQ


What was measured:
[1] = target: T1, human Notch3 NRR recombinant protein; assay: Surface plasmon resonance (Biacore) kinetic analysis; assay type: binding; details: antibody captured; 1:1 Langmuir model
Description: The kinetic constants of the anti-Notch3 NRR interactions were determined by surface plasmon resonance (Biacore® T100, Biacore Inc., Piscataway, N.J.). Flow cells of a CM5 chip were immobilized with approximately 10,000 response units (RU) of anti-human IgG-Fc (Biacore®) in 10 mM Glycine, pH 5.0 at 10 μl/min for 600 seconds. 10 μg/ml of anti-Notch3 antibodies ch28 and hu28, and ch75 and hu75 were diluted in TBS with 1 mM CaCl2 were captured at 10 μl/min. Association of four concentrations of human Notch3 NRR recombinant protein (from 3.7-100 nM) and a zero concentration (running buffer) at 100 μl/min were recorded for 3 minutes in TBS with 1 mM CaCl2. Dissociation of the complexes was measured for 10 minutes. The surface of the chip was regenerated by injecting 3M MgCl2 with 3 mM EGTA for 60 seconds at 10 μl/min. Curves obtained after subtraction of the reference and buffer signals were fitted to a 1:1 Langmuir binding model with Biacore® T100 Evaluation Software (Biacore®).

[2] = Thermal stability by differential scanning calorimetry (DSC); assay type: physicochemical; details: 0.3 mg/ml in PBS
Description: There is a positive correlation between the thermal stability of a protein or protein domain with the overall stability of the protein or protein domain. A higher melting point of a protein or protein domain often provides improved manufacturability and longer shelf life. Differential scanning calorimetry (DSC) was used to assess the thermal stability of hu28 and hu75 versus ch28 and ch75, respectively. Protein samples were diluted in PBS to 0.3 mg/ml in a volume of 250 μl. The corresponding formulation buffer blank was used for the reference sample. Both samples were thoroughly degassed using a MicroCal ThermoVac Sample Degassing and Thermostat (Microcal, Inc., Northampton, Mass.) set to 8° C. Samples were dispensed into the appropriate cells of a MicroCal VP-DSC Capillary Cell MicroCalorimter (MicroCal, Inc., Northampton, Mass.). Samples were equilibrated for 4 minutes at 15° C. and then scanned up to 100° C. at a rate of 100° C. per hour. A filtering period of 20 seconds was selected. Raw data was baseline corrected and the protein concentration was normalized. Origin Software (OriginLab Corporation, Northampton, Mass.) was used to fit the data to an MN2-State Model with an appropriate number of transitions.

[3] = target: T2, human Notch1 NRR-Fc; assay: Binding to Notch1 NRR-Fc; details: N/B = non-binding
Source text: (§1) Other members of the Notch receptor family play important roles in biological processes. For example, a Notch1 or Notch2 deficiency leads to embryonic death in mouse models. In contrast, a Notch4 deficiency results in no detectable phenotype in mouse models. The closest homologues of the Notch3 NRR region are Notch1 and Notch2 (˜50% homology), and Notch4 is a more distant homologue (˜30% homology). Cross-reactivity of anti-Notch3 antibodies to other members of the Notch family, especially Notch1 and 2, may lead to undesired effects in patients. Therefore, the potential cross-reactivity of r28 and hu28, along with r75 and hu75 to other Notch family members were assessed.
(§2) Expression constructs encoding human Notch1 and Notch2 NRR regions, fused with human IgG1 Fc fragments were stably introduced into CHO-PACE cells. Conditioned media from these cells expressing NRR-Fc fusions were collected. Human Notch2 NRR-Fc and human Notch1 NRR-Fc were purified by protein A affinity followed by size exclusion chromatography (SEC). Purified preparations were dialysed into TBS with 1 mM CaCl2 and analyzed on analytical SEC to be >99% in purity.

[4] = target: T3, human Notch2 NRR-Fc; assay: Binding to Notch2 NRR-Fc; details: N/B = non-binding
Source text: as §1, §2

Row | Molecule | ka [1] [M⁻¹ s⁻¹] | kd [1] [s⁻¹] | Tm ± Standard Deviation, CH2 [2] [°C] | Tm ± Standard Deviation, CH3 [2] [°C] | Tm ± Standard Deviation, Fab [2] [°C] | Binding to Notch1 NRR-Fc [3] | Binding to Notch2 NRR-Fc [4]
1 | hu28 VH1.0/VL1.0: humanized r28 variant VH1.0/VL1.0, anti-Notch3 antibody (VH SEQ ID NO: 13, VL SEQ ID NO: 25) (antibody, V domains shown) VH: EVQLVESGGGLVQPGGSLRLSCAASGFTFRDYGMTWVRQAPGKGLEWVAYISSGSNYIYYAEAVKGRFTISRDNAKNSLYLQMNSLRAEDTAVYYCARRGPFVLDAWGQGTLVTVSS VL: DIQMTQSPSSLSASVGDRVTITCKASQSINRYLHWYQQKPGKAPKLLIYNANGLQTGVPSRFSGSGSGTDFTLTISSLQPEDFATYYCLQHNTWPDTFGGGTKVEIK | 386000 | 0.000347 | 72.63 ± 0.03 | 83.45 ± 0.17 | 83.45 ± 0.17 | N/B | N/B
2 | ch75: rat-human chimeric anti-Notch3 antibody 75, rat variable regions fused with human IgG1 and human kappa (antibody, V domains shown) VH: QVKLLQSGAALVKPGASVKMSCKASGYAFTDYWVTWVKQSHGKSLEWIGEISPNSGGTNFNEKFKGKATLTVDKSTSTAYMELSRLTSEDSAIYYCTRGEIRYNWFAYWGQGTLVTVSS VL: NIVMTQSPKSMSISVGDRVTMNCKASQNVGNNIAWYQQKPGQSPKLLIYYASNRYTGVPDRFTGGGYGTDFTLTINSMQAEDAAFYYCQRLYNSPFTFGSGTKLEIK | 57000 | 0.000992 | 73.32 ± 0.01 | 84.59 ± 0.03 | 73.32 ± 0.01 | N/B | N/B
